According to patent publication US20080199879A1:

Tests used:
[1] = molecular target: Aβ1-42 synthetic peptide (produced by Peptide Institute, Inc.); experiment: electrochemiluminescence double antibody sandwich; 21F12 beads, ruthenium-labeled 3D6 detection; untreated Aβ1-42 control sample
[2] = molecular target: Aβ1-42 synthetic peptide (produced by Peptide Institute, Inc.); experiment: competitive electrochemiluminescence immunoassay, no competitor: ruthenium-labeled 21F12 (0.1 µg/ml) bound to bead-bound Aβ1-42
[3] = molecular target: Aβ1-42 synthetic peptide (produced by Peptide Institute, Inc.); experiment: electrochemiluminescence double antibody sandwich; 21F12 on magnetic beads, ruthenium-labeled 3D6 detection; Aβ1-42 at 1 pg/mL
[4] = molecular target: 15 L-β33-42 peptide+ruthenium complex-labeled polylysine-bound substance; experiment: competitive electrochemiluminescence immunoassay, no competitor: labeled peptide composite (1 µg/ml) bound to bead-bound 21F12
Sequence of 15 L-β33-42 peptide+ruthenium complex-labeled polylysine-bound substance (peptide, as listed by the source): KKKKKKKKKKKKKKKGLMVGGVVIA

[5] = molecular target: Aβ1-42 synthetic peptide (produced by Peptide Institute, Inc.); experiment: electrochemiluminescence double antibody sandwich; 21F12 on magnetic beads, ruthenium-labeled 3D6 detection; Aβ1-42 at 50 pg/mL
[6] = molecular target: 15 L-β33-42 peptide+ruthenium complex-labeled polylysine-bound substance; experiment: competitive electrochemiluminescence immunoassay, no competitor: labeled peptide composite bound to bead-bound 21F12
[7] = molecular target: Aβ1-42 synthetic peptide (produced by Peptide Institute, Inc.); experiment: electrochemiluminescence double antibody sandwich; 21F12 on magnetic beads, ruthenium-labeled 3D6 detection; Aβ1-42 at 25 pg/mL
[8] = molecular target: enzyme degradation product of the Aβ1-42 synthetic peptide (trypsin treated Aβ1-42 synthetic peptide); experiment: electrochemiluminescence double antibody sandwich; 21F12 beads, ruthenium-labeled 3D6 detection; trypsin-treated Aβ1-42 sample against untreated control
[9] = molecular target: Aβ1-42 synthetic peptide (produced by Peptide Institute, Inc.); experiment: electrochemiluminescence double antibody sandwich; 21F12 on magnetic beads, ruthenium-labeled 3D6 detection; Aβ1-42 at 0.5 pg/mL
[10] = molecular target: Aβ1-42 synthetic peptide (produced by Peptide Institute, Inc.); experiment: electrochemiluminescence double antibody sandwich; 21F12 on magnetic beads, ruthenium-labeled 3D6 detection; Aβ1-42 at 5 pg/mL
[11] = molecular target: Aβ1-42 synthetic peptide (produced by Peptide Institute, Inc.); experiment: electrochemiluminescence double antibody sandwich; 21F12 on magnetic beads, ruthenium-labeled 3D6 detection; Aβ1-42 at 10 pg/mL
[12] = molecular target: Aβ1-42 synthetic peptide (produced by Peptide Institute, Inc.); experiment: electrochemiluminescence double antibody sandwich; 21F12 on magnetic beads, ruthenium-labeled 3D6 detection; Aβ1-42 at 100 pg/mL
[13] = molecular target: enzyme degradation product of the Aβ1-42 synthetic peptide (trypsin treated Aβ1-42 synthetic peptide); experiment: electrochemiluminescence double antibody sandwich; 21F12 beads, ruthenium-labeled 3D6 detection; trypsin-treated Aβ1-42 sample

## 21F12 mouse monoclonal antibody (produced by Innogenetics Inc.)
[1]
  ECL value: 12800
[2]
  ECL value: 34400
[3]
  Difference from the blank (ECL value): 1370
  ECL value: 1840
[4]
  ECL value: 17000
[5]
  Difference from the blank (ECL value): 160000
  ECL value: 160000
[6]
  ECL value: 18100
[7]
  Difference from the blank (ECL value): 75300
  ECL value: 75800
[8]
  % (relative ratio of measured value, control sample = 100%): 9%
[9]
  Difference from the blank (ECL value): 614
  ECL value: 1080
[10]
  Difference from the blank (ECL value): 10300
  ECL value: 10800
[11]
  Difference from the blank (ECL value): 22400
  ECL value: 22900
[12]
  Difference from the blank (ECL value): 345000
  ECL value: 345000
[13]
  ECL value: 1090
